According to IntAct's records for PubMed 22081014:

B1: Breast cancer anti-estrogen resistance protein 3 (Homo sapiens), O75815-1 (parent)
chain: MAAGKFASLPRNMPVNHQFPLASSMDLLSSRSPLAEHRPDAYQDVSIHGTLPRKKKGPPPIRSCDDFSHMGTLPHSKSPRQNSPVTQDGIQESPWQDRHGETFTFRDPHLLDPTVEYVKFSKERHIMDRTPEKLKKELEEELLLSSEDLRSHAWYHGRIPRQVSENLVQRDGDFLVRDSLSSPGNFVLTCQWKNLAQHFKINRTVLRLSEAYSRVQYQFEMESFDSIPGLVRCYVGNRRPISQQSGAIIFQPINRTVPLRCLEEHYGTSPGQAREGSLTKGRPDVAKRLSLTMGGVQAREQNLPRGNLLRNKEKSGSQPACLDHMQDRRALSLKAHQSESYLPIGCKLPPQSSGVDTSPCPNSPVFRTGSEPALSPAVVRRVSSDARAGEALRGSDSQLCPKPPPKPCKVPFLKVPSSPSAWLNSEANYCELNPAFATGCGRGAKLPSCAQGSHTELLTAKQNEAPGPRNSGVNYLILDDDDRERPWEPAAAQMEKGQWDKGEFVTPLLETVSSFRPNEFESKFLPPENKPLETAMLKRAKELFTNNDPKVIAQHVLSMDCRVARILGVSEEMRRNMGVSSGLELITLPHGHQLRLDIIERHNTMAIGIAVDILGCTGTLEDRAATLSKIIQVAVELKDSMGDLYSFSALMKALEMPQITRLEKTWTALRHQYTQTAILYEKQLKPFSKLLHEGRESTCVPPNNVSVPLLMPLVTLMERQAVTFEGTDMWEKNDQSCEIMLNHLATARFMAEAADSYRMNAERILAGFQPDEEMNEICKTEFQMRLLWGSKGAQVNQTERYEKFNQILTALSRKLEPPPVKQAEL
partner: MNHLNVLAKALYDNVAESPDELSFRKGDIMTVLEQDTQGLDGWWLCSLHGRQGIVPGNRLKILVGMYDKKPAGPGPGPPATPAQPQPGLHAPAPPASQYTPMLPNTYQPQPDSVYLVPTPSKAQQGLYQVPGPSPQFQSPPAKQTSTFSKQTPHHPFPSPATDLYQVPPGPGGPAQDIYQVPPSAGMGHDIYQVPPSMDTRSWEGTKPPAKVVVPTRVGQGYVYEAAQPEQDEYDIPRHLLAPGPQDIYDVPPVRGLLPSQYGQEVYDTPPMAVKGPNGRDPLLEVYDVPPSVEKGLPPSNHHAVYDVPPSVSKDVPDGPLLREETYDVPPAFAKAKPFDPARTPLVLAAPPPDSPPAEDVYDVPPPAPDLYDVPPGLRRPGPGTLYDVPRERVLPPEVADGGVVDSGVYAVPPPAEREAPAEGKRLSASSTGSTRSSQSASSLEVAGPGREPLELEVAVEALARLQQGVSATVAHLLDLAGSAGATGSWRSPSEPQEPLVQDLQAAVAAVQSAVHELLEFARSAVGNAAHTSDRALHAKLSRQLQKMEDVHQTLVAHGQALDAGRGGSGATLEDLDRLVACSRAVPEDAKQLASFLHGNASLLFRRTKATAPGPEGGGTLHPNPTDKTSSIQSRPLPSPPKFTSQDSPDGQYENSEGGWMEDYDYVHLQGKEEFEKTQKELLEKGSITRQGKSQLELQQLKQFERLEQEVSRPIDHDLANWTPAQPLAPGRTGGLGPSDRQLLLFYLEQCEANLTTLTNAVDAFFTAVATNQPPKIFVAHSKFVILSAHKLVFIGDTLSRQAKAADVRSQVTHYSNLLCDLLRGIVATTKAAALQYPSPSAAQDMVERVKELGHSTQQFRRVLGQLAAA
B2: Breast cancer anti-estrogen resistance protein 1 (Homo sapiens), P56945 (parent)
chain: B1 partner
partner: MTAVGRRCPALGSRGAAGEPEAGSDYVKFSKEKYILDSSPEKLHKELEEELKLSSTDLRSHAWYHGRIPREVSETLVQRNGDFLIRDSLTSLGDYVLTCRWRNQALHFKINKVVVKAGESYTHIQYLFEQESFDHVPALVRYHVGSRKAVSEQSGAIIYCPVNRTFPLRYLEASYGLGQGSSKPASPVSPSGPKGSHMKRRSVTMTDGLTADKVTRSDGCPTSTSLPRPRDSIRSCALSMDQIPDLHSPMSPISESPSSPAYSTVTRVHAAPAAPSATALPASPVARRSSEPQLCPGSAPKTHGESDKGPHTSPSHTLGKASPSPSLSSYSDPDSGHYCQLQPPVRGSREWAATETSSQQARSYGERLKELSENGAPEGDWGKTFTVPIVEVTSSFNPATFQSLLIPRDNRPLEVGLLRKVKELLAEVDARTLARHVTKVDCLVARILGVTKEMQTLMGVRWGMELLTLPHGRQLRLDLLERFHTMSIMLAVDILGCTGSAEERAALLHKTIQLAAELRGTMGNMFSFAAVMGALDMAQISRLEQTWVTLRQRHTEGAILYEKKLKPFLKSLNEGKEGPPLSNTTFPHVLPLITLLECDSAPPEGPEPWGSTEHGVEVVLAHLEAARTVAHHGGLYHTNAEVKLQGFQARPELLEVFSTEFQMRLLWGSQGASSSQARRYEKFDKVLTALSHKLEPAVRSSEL
B3: SH2 domain-containing protein 3C (Homo sapiens), Q8N5H7-2 (parent)
chain: B2 partner
partner: B1 partner

Variants of: B1
Conditions: with bcar1_human BCAR1, P56945

| effect of a mutation on the interaction | Variant |
| --- | --- |
| disrupting interaction | L744E |
| disrupting interaction | R748E |

Variants of: B2
Conditions: with SH2D3C

| effect of a mutation on the interaction | Variant |
| --- | --- |
| disrupting interaction | F794R |
| disrupting interaction | L787E |

Variants of: B2
Conditions: with SH2D3C
Remark: another data set of the same source

| Variant | effect of a mutation on the interaction |
| --- | --- |
| F794R | decreasing interaction |
| F794E;D797R | disrupting interaction |

Continued, values first:

| effect of a mutation on the interaction | Variant |
| --- | --- |
| decreasing interaction | L787E |
| decreasing interaction | D797R |
| disrupting interaction | L787E;F794R |

Variants of: B3
Conditions: with bcar1_human BCAR1, P56945

| effect of a mutation on the interaction | Variant |
| --- | --- |
| decreasing interaction | R627E |
| disrupting interaction | L623E |
| decreasing interaction | L469R |

Variants of: B3
Conditions: with bcar1_human BCAR1, P56945
Remark: another data set of the same source

| effect of a mutation on the interaction | Variant |
| --- | --- |
| disrupting interaction | L469R |
